Source: a protein production outcome set (Wang et al. 2014)

Test: label from the status in PepcDB records
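Note: failed if final PepcDB status was selected cloned or expressed and not failed if soluble or beyond.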

**Q.** For “MICCLNPDCLNPLNPDGKKSCQSCGTTLVPLLRNRFRVVRVLSDEGGFGRTYLSEDKDKLNEPCVIKQLAPKFQGTWSQKKAVELFAEEAKRLQELGEHPQIPTLMAYFEQDNCLYLVQQFINGQNLLKELQQRKNYRPGEIQAILLDLLPVLKFIHDRGVIHRDIKPENIIRCRTDGRLNLIDFGSSKQLTAKVQNFGTSIGSHGYSPLEQIRDGKAYAASDLFALGATCFHLITSVSPFQLWMEHGYSWVSNWRQYLHSPLTPELDFVLDKLLQKDLKHRYTSADEVIKDITPKQPLALPAAGQTSGKIPVPQTTYLSKLPKKYSLLRSVVLLSALVLLFGFSESWFSQYLQIYSSLSARLTQNKSGQVVLAQPQKTTLRTISLANTLPDDENAFVSLAISPNGQIIASCGSDRTIKIWQLATGEDISSLKGHSRKVNAVVFSPDGKTLVSGGDDNTIKIWNLKTGKVIRTITGHSDAVHTLAISPNGKTLVSGSDDNTVKVWNLNTGRLINTLTGHTFWVRSVAISPDGVNIASGSFDKTVKIWNLETGTLTHTLAGNGETVTSIAFNPDGNTLASASRDRTIKIWKVGAGTRVRTLKGSTETITSIAFSPDGNTLASASRDQTIKLWNLETGKEIRTLEGHENTVTTVAFTPDGANLVSGSGDNTMRIWRIGN”, which protein production is on record?
**A.** The protein production was “failed”.

**Q.** For “MICKKLIQTILLGFAMCFYLLLGAGLNPTLAATLTQVESISQPRMQTLSEPRNLESGVDSFLTSIPAGYYTIATVEELKSLLKKSQPMLVDVREASEYRAGHIPNAINIPLRTLSQNLNQIPRTRPVVLYCSSGYRSAMGVMTLHLLGYENVQGFPPSFAGWKNAKEAMTYGRSKTIAS”, which protein production is on record?
**A.** The protein production was “failed”.

**Q.** With “MICVYTEDRWADILAAVASVRAQSRPARETLLVVDHHQTLLERLSREYKEVPEVRVLANAGPRGLSAGRNTGIAASHGEIIAFLDDDAVAERDWLRHFAEGYEDPRVMAVGGRTMPIWASGRRPAWFPEEFDWVVGCTYKGLPPGRVRVRNVLGGNASFRRTAFDAAGGFATGIGRDGDKRPLGCEETELCIRLTRARPDAILLIDDRAVIHHRVPEPREHFAYFRTRTYAEGLSKALVARSVGAGKGLESERRYTTRVLPAGVARGLRDAALARPGGAGRAGAIVAGVLTAAGGYVLGSVRARRGGATFSVVEPPDSEGEAA” as the sequence, how does the protein production read?
**A.** Its protein production is “failed”.

**Q.** With “MIDDLLNFFNSFNVVKNYKLINQLKNEVDTLKSRLDIPRELLDGFYADRNSREYREVYEKDAPLVTVCIGTYNRGKLLVERSVRSVLEQSYGNIELIVVGDCCTDDTPRLVQGITDPRFRFINLPERGNYPENPLHRWCVAGTVPFNYALSQARGDFITHLDDDDEFVPDRIEKLVKFIQREKADLVWHPFWYERSNGRWAMRKAQEFSGGKVTTSSIFYHRWFTAVPWDIEAYRYQEPGDWNRLRKIKYLGARVARYPEPLLRHYCERNQESLSSRTIQTRNTKLEHHHHHH” as the sequence, how does the protein production read?
**A.** Its protein production is “failed”.

**Q.** With “MIDFTKSKQYTLSIRLSTDGFSFSIYNPINDNSQSLFEKEVDTSLSLTANLKNVFHESDFLSYSYKRVNIMIASKRFTMIPLELFEEEQAELLFYHNHQKRENEIVMYNILKKNNVVIIFGIDKSTYTFLNEQYPEARFYSQSTPLIEYFSIKSRLGNSKKMYASVRKDAIDIYCFERGQLLLANSFECMQTEDRIYYLLYVWKQLEFNQERDELHLTGTLSDKETLMNELKKFILQVFIMNPANNIDMQALLTCE” as the sequence, how does the protein production read?
**A.** Its protein production is “not failed”.

**Q.** For “MIDILNLALPYFGLIFVGFACGRWKKLPEQGLVWMNFFLVFVSLPALFFRIMSKTPFEELNNLPFVLATTLATAIAFFLSGMLGRLIGKLSMREATMAALSGGYGNIGYMGPGLALAVLGTQAAAPTALIFCFDTIFLFSIVPLGMALTAADKRPLIPTIIAVLREILFHPLIVAAYCGAAAAAFHVELPVAVDKMLAFLQNAAAPVALFTLGVTVALRPFGRVPWEIPSLVAVKLLLHPVIVFCLVLAFGPFSPEWAATAVLMASLPPALNVFVIARQYNTWVEPASVAVLIGTFMSVVTLTTVMWLIRTGQIPFPA”, which protein production is on record?
**A.** The protein production was “failed”.

**Q.** Which protein production does the source give for “MIDILPLLDWHHFVYFAIPAVLLLIVSALFALYQRRVWAICIAIAAACVLMFFIGGMWHSLERPPLRTMGETRLWYSFFVIIAGLIIYIRWKYRWILSFATVLSTVFMIINIAKPDIHNKTLMPALESPFFVPHVISYIFAYAMLGAALLVGGYFLFCKRKHKEVNAKVMMHTTDNLVYTGFAFLMTGLLLGAIWAKLAWGTYWNWDPKETWAAITVFSYLLYIHHRLHRPRAFAHSLVLLIVSFLFLQICWYGVNYLPSAKDSSIHTYTR” here?
**A.** The protein production was “failed”.

**Q.** Which protein production does the source give for “MIDKQSGIPIYIQIQSEIKKKMEDGVWKVGTSIPAERQLAEMFHVSRMTVRQAIQGLVDDNILQRRVGAGTFIAEKKLTERLEAVTSFTNLMLQEGKVPSTRIVSYGIRPASTQEQEALQLPENSNVMKIERIRYGDRVPILYEVAAIPEKIASLLTKEDIMDSLYKAIELKLGQPIGEAEQIMEASLVSEKIAPYLDVKLGSPVMKLRQITTLEDGRPFEFTRSQYVGSRFQFVARIKQ” here?
**A.** Its protein production is “failed”.

**Q.** With “MIDLILAIIILVSALLGLLRGFVSIIISTSSWLLASWATFEFGNTASHWLASHGIPSTTEILCGYALVFIGTLMTVGAVGMLMHAGINAIRLNNIDRIFGFALGTFRGGFIACLLLLMIGYTPLAHEPVWRNSRLVPLLQPGVSWMRAKLPQRSSPLTPQRLPLTRPMINRMGSINISVSDDNQLISRVFPPLSSNEHDKSHYVPVQPIIYKPTTTY” as the sequence, how does the protein production read?
**A.** Its protein production is “failed”.

**Q.** For “MIDPLASPGSAPLIVIAGPTASGKSALALRVARRFNGVVINADSMQVYRDLRILSARPSVEDEAAAPHALYGVLDGAEVCSVGRWLALADGAVAAARAAGRLPILCGGTGLYLKAALEGLASVPEVAPEVRAEARELLAALGPAALHAKLAELDRAMAERLRPSDAQRIARAYEVVRGTGRSLMDWWSDPVATPALPGRPLLLVIDPPRAAQRAACDARLLAMVAAGALDELALLLARRLDPALPVMRAVGVPELARTLRGEVGLAEAVERAQGATRRYAKRQGTWIRTQLRPDRVLSESLVTQLSESQLTDIDNFLYAFLLTGAS”, which protein production is on record?
**A.** Its protein production is “failed”.

**Q.** Which protein production does the source give for “MIDRNIVNLRLFRIYSKRYLKFDFVAAIVVFLVAIPLCLGIALASGAPLFSGILSGIIGGIVVGIFSGSQVSVSGPAAGMAAVVLAAISQLGDFNTFLLALTIAGLLQMIIGALRAGFVADYVPSNVVQGLLCSIGILLIIKQLPLAFTLSSDFDELKTHLLETTEGFTVSPLLALSQHINEGALIITTLSLAILIYFDITKNKILKEIPAPILVVLAGILLNELFIWTNSSLAQNSPQLVNIPDTNGFFQFFSHLEYPDWSAWTNPKVYLYALVICIVASLETLLNLKASERLDKKRRHSPTNQELVAQGLGNITSGLVGGIPVTSVIVRTSINIHAGSKTKFSAVLHGFFILFAVMLIPGALNKIPLSSLAAILIYTGYKLNKPAIYINIFSQGSDRFIPFIVTVISIIAFNLLAGILIGLAISLFYILKSNSQARIDIIKEIYPNGSTYRLMLPQQMTFLNKAALVAELDTLPRRSQLIIDARHSQYIDKEILDLFNELKEELAGSKQISVNFTGFQEHYKIHNYIDFITVTTYDVQTNLTPAQVLNILLEGNQRFLSDNRIHRSNQIDIKYTAKTQHPIAVVLACIDSRVPVETIFDMSFGDLFCVRIAGNVINDDILASIEYACNVVGAKLIMVLGHTRCGAIQSACDGIEKGHITQLLSKIKPAVNAEKETTTERNGKNQTFVNHVTELNVANTLQNIYKKSDILRTMIDSNEIGMVGAIYDVSSGKVSCKTYTEELSTLDGDENKLLAQKFETILLEAKAS” here?
**A.** Its protein production is “failed”.

**Q.** For “MIDSLLDEMTLEEQVSVLSGADFWTTVPVERLGIPKIKVTDGPNGARGGGSLVGGVKATCYPVAIALGATWNPALIEAMGVSLAGQVKSKGASVLLAPTVNIHRSGLNGRNFECYSEDPMLTAALAVAYIKGVQSQGVAATIKHFAGNESEIERQTMSSDIDERALREIYLLPFEQAVKKAGVMAVMSSYNRLNGTYTSEHNWLLTDVLREQWGFDGIVMSDWFGSHSTSESVNAGLDLEMPGPTRDRGEKLVQAVRDGTVRPETVREAAGRILTLLERVGAFSSAPDLSEHAEDLPADRALIRKIGAEGAVLLKNDNILPLEKASLKRVAVIGPNAAVARVMGGGSAQINAHYTISPLEGIRAALQGTADVQHSVACGNSRLVKLFSQPVTVEYFKGVNCQGTPVAAEAVQTGEFFWFELPSPDLSLTDFSVRFTGTFTPQEDGPHLLGMTNSGLAKLYVDGELVVDGYTDWKRGENFFGTANDEIRHSVEMKAGRSYAIKVEYLSPPPEEYGIHITAIRFGIERILGEDAMVEAVECAKGADVALLFVGREGQWDTEGLDLPDMRLPGRQEELIERVSAVNPNCIVVLQTGGPVEMPWLEKVKAVLQVWYPGQELGNAVADMLFGDQEPGGRLPQTFPKQLSDNSAITNDPSIYPGMDGHVRYEEGVFVGYRHHDSRTIEPLFPFGFGLNYTSFEWDEPKASASEMTASGVTVSVRVSNTGKRAGSDVVQLYVEAPVSGVERPLKELRAFAKIALEPGESGEVTLEINPRDLSYYDVDAAAFRAPAGDYRLLIGAHAQDIRSAITIVNPQEWLGAVGDRTI”, which protein production is on record?
**A.** The protein production was “failed”.

**Q.** Which protein production does the source give for “MIDTHIHSDTRGLEDLELMAMCLDGVITLAHDPFEMKNIKVWEAHVEKLLINELERAKKVGLNLFICVGMHPRAIPPEIDEALDKIKSYINYNSRVVGIGEIGLEKATKEEKEVFIKQLLLAEELNMPAVVHTPRRNKEEVTKIILDEISTLNLKNRDIVIEHCNKETTKWVLDEEFYVGLTIQPGKLTPLEAVEIVKEYKDFADKILLNSDCSSNASDVLAVPRTVLKMKINGIEKDVIYKVAHKNAVNLFGLDI” here?
**A.** Its protein production is “failed”.

**Q.** Which protein production does the source give for “MIDTSIFQDKTAVYYTLGCKLNFSETSTIGKVLREAGVRTVRKGEKADICVVNTCSVTEVADKKCRQAIHRLVKQHPGAFVVVTGCYAQLKPDAVAKIEGVDVVLGAEQKKDLLQYLGDLRKHESGEAHTSALKDIRSFAPSCSRGDRTRFFLKVQDGCDYYCSYCTIPFARGRSRNGSIASLVEQARQAAAEGGKEIVLTGVNIGDFGKSTGETFFDLVKALDDVECIERYRISSIEPNLLTDEIIEFVSRSKRFMPHFHIPLQSGSDEVLKLMRRRYDTALFASKVKRIKEVMPDAFIGVDVIVGTRGETEEYFEQAYRFIQSLDVTQLHVFSYSERPGTQALKIEHVVSSEEKHRRSRLLLDLSDEKTRAFYARHIGQTMPVLLERSKPGTPMHGFTPNYIRVEVPHDDALDNQVIPVRMGDFNEEGTALSGAFGDK” here?
**A.** The protein production was “failed”.

**Q.** Which protein production does the source give for “MIEEERNNYSVFHGLWTLASRELKKWYKAPVILLLSLIQPIFWIGIFGKAMNLGSIFTETTFNIPGLTIPKQVLDQIGLEILKQTFGTTDYFSFLAAGMLSFIVLFTSMQSGMSIVWDRRLGVLDRILTTPVPRGNIIIGKVLSAVIRSLVQATIVLVVAVLLGMTFAPEINPLDFLGVYAALFLMSFGLSSLFLMLALRATSWESQMAIMNLLNLPLLFTSNAFYPVKSMPYWLKPVAYINPLTYSNGVARGMLLGISTNLAIDFLYLGLFAIILSTIGIVLSWKYLSK” here?
**A.** The protein production was “failed”.

**Q.** For “MIEESVMLRQHNLRLRKYDYVLGRLFVALPIGGLVVAVLLLFADWRVGRFELAMCLAMYLFTMMGIEVGFHRCFAHRAFKAGTGLQWVLAVAGSMGGHGPLIWWVTTHRRHHRFVDTDQDPHTPNKDLRGPWRNFKSFLYGYVGWTMDTDVKLQEGWQRYGVDLYKNSILFKVHARFALIALLGLLLPTVAGALFHRTAEGALLGLLWGGLVPICLTQHLFWMINAFGHRIGAKPFSGRIVGDSRNCWWLALPTFGQGWHNNHHADPGCATTRKTWWQLDPGAWLIRLFERLGWASAVKWK”, which protein production is on record?
**A.** Its protein production is “failed”.

**Q.** With “MIEFTALDDLSLLRESVSLECKLAQGRDGKGALPDDFWPTYSAMANTDGGIVILGVRERKGQFEVAGIENPDKLRTELFNHLNNRQKVSVNLLRDEDVRAWPVEGKTLLVVEIPRARRQQRPVYLRGNPLGGHTYRRLHEGDRPLPDE” as the sequence, how does the protein production read?
**A.** Its protein production is “failed”.

**Q.** For “MIEGIIEEIRTNGSFLITTHENPDGDAVGSSLALAGYLRRLGKDVTIHFCDPVPDLYAFLPLAEEVTRTVPDRDYDICFVLDVGEFRRAGKQIAECKRIKKFINIDHHLTSDNFGFINYIDPKAAATGILVHRIITGAGDVVGYETALCLYTAIITDTGSFRYSNANPEAFAIAGELVSTGINTWSIAEKLYESQPRERLELLALALSTLTISPRGEYASITVTLDMYNKTGASAELTDGFVNYPRSIRGVEVSVFFREINPGLFKVGFRSKGKIDVSRIAAAFGGGGHHNAAGATMNGSLEGIKATLFSHLESTLLEHHHHHH”, which protein production is on record?
**A.** The protein production was “not failed”.
